Experimental data: US20240247055A1

Biological target: low-density lipoprotein (LDL) receptor-related protein 1 (LRP1) (human) (UniProt Q07954)
Experiment: cell-based or functional assay

UniProt Q07954, sequence (Q07954 20-4544): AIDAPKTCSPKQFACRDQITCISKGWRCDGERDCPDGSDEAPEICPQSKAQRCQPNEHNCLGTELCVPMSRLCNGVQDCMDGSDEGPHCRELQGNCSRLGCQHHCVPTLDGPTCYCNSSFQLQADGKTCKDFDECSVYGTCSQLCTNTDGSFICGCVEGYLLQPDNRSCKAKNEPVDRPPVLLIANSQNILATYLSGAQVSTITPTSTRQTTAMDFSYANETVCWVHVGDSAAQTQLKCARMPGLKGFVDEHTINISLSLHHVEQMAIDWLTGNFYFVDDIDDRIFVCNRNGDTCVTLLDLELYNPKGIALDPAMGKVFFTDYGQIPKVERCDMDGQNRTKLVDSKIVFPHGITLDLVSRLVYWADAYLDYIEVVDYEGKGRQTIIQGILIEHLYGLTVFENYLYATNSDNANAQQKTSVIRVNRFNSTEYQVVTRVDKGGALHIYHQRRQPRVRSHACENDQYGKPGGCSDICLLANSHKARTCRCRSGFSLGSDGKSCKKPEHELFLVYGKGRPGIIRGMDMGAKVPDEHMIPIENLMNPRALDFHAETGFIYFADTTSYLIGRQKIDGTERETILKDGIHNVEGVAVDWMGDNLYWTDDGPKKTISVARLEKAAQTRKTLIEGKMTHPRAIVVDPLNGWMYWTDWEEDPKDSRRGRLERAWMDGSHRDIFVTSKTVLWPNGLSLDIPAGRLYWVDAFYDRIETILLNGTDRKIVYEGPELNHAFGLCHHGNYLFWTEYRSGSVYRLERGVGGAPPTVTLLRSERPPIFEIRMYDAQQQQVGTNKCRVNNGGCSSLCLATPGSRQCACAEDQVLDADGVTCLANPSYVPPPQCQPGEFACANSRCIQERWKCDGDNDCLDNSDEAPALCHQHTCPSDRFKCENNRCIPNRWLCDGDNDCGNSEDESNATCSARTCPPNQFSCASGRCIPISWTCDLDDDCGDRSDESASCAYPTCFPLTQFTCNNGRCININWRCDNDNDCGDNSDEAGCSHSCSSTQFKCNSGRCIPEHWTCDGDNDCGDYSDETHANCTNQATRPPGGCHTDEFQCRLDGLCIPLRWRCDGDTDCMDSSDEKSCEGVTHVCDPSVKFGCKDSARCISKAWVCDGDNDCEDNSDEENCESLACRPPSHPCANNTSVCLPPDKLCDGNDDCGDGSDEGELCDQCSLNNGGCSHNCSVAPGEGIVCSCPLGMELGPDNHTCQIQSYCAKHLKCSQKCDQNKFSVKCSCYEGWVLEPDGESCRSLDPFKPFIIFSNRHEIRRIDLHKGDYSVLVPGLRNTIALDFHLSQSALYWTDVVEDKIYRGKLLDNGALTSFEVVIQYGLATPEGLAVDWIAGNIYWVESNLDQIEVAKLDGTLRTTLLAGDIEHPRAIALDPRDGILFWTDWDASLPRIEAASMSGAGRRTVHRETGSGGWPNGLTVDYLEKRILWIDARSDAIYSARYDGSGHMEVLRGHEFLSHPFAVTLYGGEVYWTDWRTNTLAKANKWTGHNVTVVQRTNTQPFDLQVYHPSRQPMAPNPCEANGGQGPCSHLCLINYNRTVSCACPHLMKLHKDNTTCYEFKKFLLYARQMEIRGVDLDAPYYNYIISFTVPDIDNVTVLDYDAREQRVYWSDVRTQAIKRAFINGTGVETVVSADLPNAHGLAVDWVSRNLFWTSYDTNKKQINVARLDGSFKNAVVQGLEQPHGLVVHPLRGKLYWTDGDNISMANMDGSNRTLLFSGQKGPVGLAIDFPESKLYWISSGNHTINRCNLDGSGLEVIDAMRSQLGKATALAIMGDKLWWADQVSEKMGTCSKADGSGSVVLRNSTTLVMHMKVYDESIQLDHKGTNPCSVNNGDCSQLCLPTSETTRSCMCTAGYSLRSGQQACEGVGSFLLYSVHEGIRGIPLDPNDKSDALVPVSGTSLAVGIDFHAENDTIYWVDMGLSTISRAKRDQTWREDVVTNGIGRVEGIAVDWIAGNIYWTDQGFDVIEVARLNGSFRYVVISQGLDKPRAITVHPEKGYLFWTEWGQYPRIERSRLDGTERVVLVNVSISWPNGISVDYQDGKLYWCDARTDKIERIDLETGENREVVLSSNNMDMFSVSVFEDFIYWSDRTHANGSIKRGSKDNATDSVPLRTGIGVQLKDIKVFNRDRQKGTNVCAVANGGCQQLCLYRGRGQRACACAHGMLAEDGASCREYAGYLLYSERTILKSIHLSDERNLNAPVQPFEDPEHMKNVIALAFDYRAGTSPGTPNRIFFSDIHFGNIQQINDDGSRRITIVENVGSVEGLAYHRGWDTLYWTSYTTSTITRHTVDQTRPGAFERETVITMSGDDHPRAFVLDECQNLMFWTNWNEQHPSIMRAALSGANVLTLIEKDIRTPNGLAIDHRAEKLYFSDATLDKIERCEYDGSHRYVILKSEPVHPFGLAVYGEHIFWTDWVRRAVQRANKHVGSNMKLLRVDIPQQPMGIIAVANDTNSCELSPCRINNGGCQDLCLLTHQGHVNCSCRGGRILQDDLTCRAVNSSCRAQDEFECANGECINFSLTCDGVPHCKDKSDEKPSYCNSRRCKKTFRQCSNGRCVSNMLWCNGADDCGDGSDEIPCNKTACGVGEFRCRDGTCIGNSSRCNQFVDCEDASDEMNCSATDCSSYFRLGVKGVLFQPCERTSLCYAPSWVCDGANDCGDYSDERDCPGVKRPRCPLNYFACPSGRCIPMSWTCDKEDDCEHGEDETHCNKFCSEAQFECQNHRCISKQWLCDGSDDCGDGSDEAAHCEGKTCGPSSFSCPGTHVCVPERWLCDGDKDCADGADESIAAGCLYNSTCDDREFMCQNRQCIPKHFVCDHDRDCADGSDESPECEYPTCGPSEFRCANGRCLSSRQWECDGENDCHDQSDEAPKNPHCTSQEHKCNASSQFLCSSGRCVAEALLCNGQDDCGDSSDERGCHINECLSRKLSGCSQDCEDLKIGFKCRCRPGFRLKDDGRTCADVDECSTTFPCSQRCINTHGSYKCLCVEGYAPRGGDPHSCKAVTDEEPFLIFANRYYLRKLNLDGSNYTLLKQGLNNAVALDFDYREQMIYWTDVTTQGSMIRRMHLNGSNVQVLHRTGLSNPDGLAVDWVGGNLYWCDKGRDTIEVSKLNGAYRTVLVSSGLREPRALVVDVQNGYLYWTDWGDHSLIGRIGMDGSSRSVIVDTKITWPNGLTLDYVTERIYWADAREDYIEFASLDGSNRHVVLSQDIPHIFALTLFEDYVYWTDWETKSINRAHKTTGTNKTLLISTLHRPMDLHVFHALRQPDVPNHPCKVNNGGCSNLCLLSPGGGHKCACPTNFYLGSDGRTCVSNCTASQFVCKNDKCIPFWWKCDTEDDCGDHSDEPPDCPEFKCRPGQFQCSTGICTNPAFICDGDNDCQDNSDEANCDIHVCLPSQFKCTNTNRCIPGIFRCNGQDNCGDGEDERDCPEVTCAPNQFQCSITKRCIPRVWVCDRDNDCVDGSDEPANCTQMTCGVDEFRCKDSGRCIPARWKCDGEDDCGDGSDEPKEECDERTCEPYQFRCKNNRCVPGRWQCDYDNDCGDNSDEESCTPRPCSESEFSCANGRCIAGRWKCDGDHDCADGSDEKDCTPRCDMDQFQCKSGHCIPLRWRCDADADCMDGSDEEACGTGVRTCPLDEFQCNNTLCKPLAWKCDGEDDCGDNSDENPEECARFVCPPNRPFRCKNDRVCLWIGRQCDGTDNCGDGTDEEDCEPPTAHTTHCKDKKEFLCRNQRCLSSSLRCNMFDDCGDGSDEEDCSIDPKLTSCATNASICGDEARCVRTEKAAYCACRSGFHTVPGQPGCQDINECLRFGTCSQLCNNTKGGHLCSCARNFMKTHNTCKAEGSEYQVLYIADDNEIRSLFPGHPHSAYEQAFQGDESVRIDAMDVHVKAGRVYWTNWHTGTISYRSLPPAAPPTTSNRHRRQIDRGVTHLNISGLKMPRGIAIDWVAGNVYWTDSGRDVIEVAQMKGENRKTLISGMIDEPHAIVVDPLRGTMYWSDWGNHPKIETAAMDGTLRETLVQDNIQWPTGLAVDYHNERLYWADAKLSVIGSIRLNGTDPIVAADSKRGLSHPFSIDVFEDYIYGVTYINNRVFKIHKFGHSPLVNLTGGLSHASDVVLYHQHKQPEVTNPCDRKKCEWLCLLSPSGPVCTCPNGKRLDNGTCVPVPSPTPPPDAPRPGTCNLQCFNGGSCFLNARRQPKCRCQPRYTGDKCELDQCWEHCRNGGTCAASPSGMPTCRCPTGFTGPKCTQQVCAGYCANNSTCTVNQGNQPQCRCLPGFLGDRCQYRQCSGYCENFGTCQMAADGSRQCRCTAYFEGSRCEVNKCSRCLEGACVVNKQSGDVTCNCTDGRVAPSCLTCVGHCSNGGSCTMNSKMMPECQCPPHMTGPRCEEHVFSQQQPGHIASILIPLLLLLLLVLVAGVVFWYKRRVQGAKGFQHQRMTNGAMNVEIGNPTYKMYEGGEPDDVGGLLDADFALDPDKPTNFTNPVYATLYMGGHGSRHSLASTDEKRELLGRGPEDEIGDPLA

receptor-associated protein (RAP) (from UniProt P30533 35-357) (ligand)
inhibition of uptake of K18 tau in WT H4 cells (IC50): 9.6 nM
inhibition of uptake of full-length tau in WT H4 cells (IC50): 4.9 nM
